Test results as given in patent publication US11160869B2 (priority 2019, dated 2021).

What was measured:
STAT3 [1] = experiment: In vivo pSTAT3 induction in lamina propria, immunofluorescence confocal microscopy; parameters: species or system Balb/C mice
Description: In vivo studies in mice were performed where the biological activity of human IL-10 following transcytosis was assessed for its ability to stimulate the mouse IL-10 receptor and increase phosphorylation of STAT3 (pSTAT3) in cells within the lamina propria.
An extensive amount of rhIL-10 (SEQ ID NO: 5) was trafficked through enterocytes. Additionally, there were a population of lymphocyte-like cells at the basolateral surface of enterocytes and within the lamina propria that were pSTAT3 positive.
Entire intestines of mice were isolated and processed as a “swiss role” and localization of pSTAT3 was detected by immunofluorescence confocal microscopy (FIG. 110).

[2] = system: colonic marker expression; experiment: Colonic sigmoidoscopy spray in NHP: pro-/anti-inflammatory and tissue repair markers; format: in vivo, Macaca fascicularis; details: 1, 3, 10 mg
Description: To assess the effect of an IL-10 delivery construct on pro-inflammatory and anti-inflammatory markers the IL-10 delivery construct was delivered to male Macaca fascicularis monkeys (about 5 to about 8 kg) by colonic sigmoidoscopy with a spray nozzle. The IL-10 delivery construct was administered at doses of 1 mg, 3 mg, and 10 mg formulated in albumin.

[3] = system: enterocytes and lamina propria cells; experiment: Vesicular trafficking during apical to basal transcytosis (Rab7, Rab11, LMAN1, LAMP1), rat jejunum; format: in vivo
Description: Immunofluorescence microscopy images of rat jejunum were obtained following a 50 uL intraluminal injection of an IL-10 delivery construct prepared in PBS at ˜40 uM. For FIGS. 129-133: arrow=apical (luminal) epithelial membrane; dashed line=epithelial cell-basement membrane demarcation; 1-p=lamina propria; G=goblet cell. Cell nuclei stained with DAPI (blue).
The timing of LMAN1 redistribution to the basal compartment coincides with the presence of hIL-10 being ultimately detected in non-polarized cells within the lamina propria where it was not associated with LMAN1.
Ultimately, the delivery construct is delivered to lysosome-like structures within a large fraction of cells within the lamina propria, an outcome that would limit its systemic distribution following A-B transcytosis.

[4] = Plasma rhIL-10, IL-10 delivery construct and IL-1Ra immunoassays, DSS study; format: in vivo, mice; details: 0.3 and 3 mg/kg, 4 hours after final dose
Source text: Plasma cytokines were quantified using the V-plex Proinflammatory Panel 1 Mouse Kit. Plasma IL-1Ra was quantitated by sandwich immunoassay using an antibody pair from the Mouse IL-1Ra/IL-1F3 DuoSet ELISA (R&D Systems #DY480), Streptavidin SULFO-TAG Labeled (MSD #R32AD-1), Multi-Array 96 Plate Pack, SECTOR Plate MSD #L15XA-3 and Read Buffer T (4×) (MSD #R92TC-2). Samples were read on the QuickPlex SQ 120 plate reader (Meso Scale Discovery, Rockville, Md.).
The Human IL-10 Base kit (MSD #K151AOA-4) was used to measure rhIL-10 in plasma. […] The MSD Small Spot IL-10 plate was incubated with Diluent 41 (25 μL/well) for 30 minutes at room temperature with shaking before use. Controls and samples were diluted 2-fold with pooled CD-1 mouse plasma (BioIVT, custom order), and the calibration standards were also prepared in mouse plasma. Standards, diluted samples and controls were added (25 μL/well), and the plate was incubated for 2 hours at room temperature with shaking. The plate was washed 3 times with phosphate buffered saline with Tween-20 (PBST), and 25 μL/well 1×SULFO TAG Anti-human IL-10 Antibody (prepared in Diluent 45) was added to the plate. The plate was incubated for 1 hour at room temperature with shaking. Following a wash step, 150 μL/well of 2×MSD Read buffer was added, and the plate was read in the MSD Sector Imager 600 plate reader.

STAT3 [5] = experiment: pSTAT3/total STAT3 in colon tissue of non-inflamed mice (ELISA MSD); format: in vivo; details: construct 1 mg/kg; rhIL-10 0.9 mg/kg; oral
[6] = Liquid formulation screens: freeze/thaw, shear stress, short-term stability; format: physicochemical; details: 20 mg/mL, formulations of TABLE 11
Description: Formulation development to establish the lyophilization buffer was performed by initially screening the freeze-thaw and shear-induced liquid stability of the target construct following dialysis into combinations of several components outlined below:
Using these two formulations, in order to ensure that the UF/DF step would function as intended and that freezing at the beginning of the lyophilization process would be acceptable, a final liquid formulation freeze/thaw screen and short-term stability study was conducted at higher protein concentrations as outlined in TABLE 11 below.
This formulation was recommended to proceed as the buffer to be used in the UF/DF formulation step prior to lyophilization.

[7] = Lyophilization buffer screens: HMW/dimer/monomer by SE-HPLC before and after lyophilization; format: physicochemical
Description: Size exclusion chromatography (SE-HPLC) can be used to characterize the size distribution of the IL-10 delivery construct. The percentage of IL-10 delivery construct found in dimer, monomer, and aggregate forms in a liquid composition or a lyophilized composition if reconstituted in a liquid can be determined by SEC-HPLC (FIG. 34).
Further testing based on the results from the initial liquid formulation screen, initial lyophilization feasibility studies were conducted using the conditions in TABLE 9. Glycine and mannitol, known to be useful in the lyophilization of proteins as […] bulking agents were added to this screen, histidine at pH 7.0 added to provide a more granular evaluation of the effect of pH in the 7.0-7.5 range, and trehalose was added as an option to sucrose as an osmolyte. FIGS. 21 and 22 show the percentage of target constructs in the dimer form before and after incubation at 25° C. for 3 days (FIG. 21) and before and after 5 freeze/thaw cycles (FIG. 22).
Based on the results from this initial study a second lyophilization screen was conducted using the formulations listed in TABLE 10.

[8] = secondary formulation buffer screen, 0.3% Poloxamer

B1: IL-10 delivery construct: recombinant homodimeric fusion protein: N-terminal methionine, cholix386 domain, polyGlySer spacer, recombinant human IL-10 (protein)
chain: MVEEALNIFDECRSPCSLTPEPGKPIQSKLSIPSDVVLDEGVLYYSMTINDEQNDIKDEDKGESIITIGEFATVRATRHYVNQDAPFGVIHLDITTENGTKTYSYNRKEGEFAINWLVPIGEDSPASIKISVDELDQQRNIIEVPKLYSIDLDNQTLEQWKTQGNVSFSVTRPEHNIAISWPSVSYKAAQKEGSRHKRWAHWHTGLALCWLVPMDAIYNYITQQNCTLGDNWFGGSYETVAGTPKVITVKQGIEQKPVEQRIHFSKGNAMSALAAHRVCGVPLETLARSRKPRDLTDDLSCAYQAQNIVSLFVATRILFSHLDSVFTLNLDEQEPEVAERLSDLRRINENNPGMVTQVLTVARQIYNDYVTHHPGLTPEQTSAGAQAGGGGSGGGGSGGGGSPGQGTQSENSCTHFPGNLPNMLRDLRDAFSRVKTFFQMKDQLDNLLLKESLLEDFKGYLGCQALSEMIQFYLEEVMPQAENQDPDIKAHVNSLGENLKTLRLRLRRCHRFLPCENKSKAVEQVKNAFNKLQEKGIYKAMSEFDIFINYIEAYMTMKIRN
modifications: homodimer
STAT3 [1]; intraluminal injection into jejunum
  phosphorylation of STAT3 in cells within the lamina propria: increased phosphorylation of STAT3
STAT3 [1]; oral gavage
  IL-10 activity (pSTAT3) along the intestine: demonstrated along the length of intestine
[2]
  expression of anti-inflammatory markers: increased expression of anti-inflammatory markers
  expression of pro-inflammatory markers: decreased expression of pro-inflammatory markers
  expression of tissue repair and wound healing biomarkers: increased expression of biomarkers associated with tissue repair and wound healing
[3]; 1-15 min
  co-localization with LMAN1: co-localized with redistributing LMAN1
[3]; 1 min post ILI, not increasing over 15 min
  co-localization with LAMP1 in polarized enterocytes: Limited LAMP1/delivery construct co-localizations
[3]; 10 min and 15 min post ILI
  co-localization with LAMP1 in non-polarized cells within the lamina propria: extensive LAMP1/delivery construct co-localizations
[3]; rat, in vivo
  co-localization with Rab7+ vesicles in enterocytes: predominantly in the apical vesicular compartment
  co-localization with Rab11+ vesicles in enterocytes: mostly in the basal vesicular compartment
  time course of completion of A-B transcytosis: 10 to 15 min
[4]
  plasma rhIL-10 relative to background of Vehicle treatment: 10-300 fold higher
STAT3 [5]
  increase in ratio of pSTAT3 to total STAT3: approximately 50%
[6]
  aggregation during freeze/thaw or at 1 week at 4 C: did not show any significant increases in aggregation
[7]; initial lyophilization feasibility study, conditions of TABLE 9
  stability with respect to aggregation: more stable at pH7.5 with sucrose and glycine
[7]; [8]
  Pre-Lyophilization (%) Dimer: 89.2%
  Pre-Lyophilization (%) HMW: 2.6%
  Pre-Lyophilization (%) Monomer: 8.2%
